Source: publication PMC11088064 (BMC Immunology, 2024)

Tests used:
hPD-1 on CHO cells [1] = molecular target: T1, hPD-1 on CHO cells (human, UniProt Q15116); experiment: cell-based or functional assay
hPD-1 on CHO cells [2] = molecular target: T1, hPD-1 on CHO cells; experiment: flow cytometry on cells; competition: PD-1-expressing CHO-S cells with serial dilutions of anti-PD-1 at 4 °C for 15 min, then human Fc (IgG1)-labeled PD-L1 at 4 °C for 1 h in PBS/2% BSA; bound PD-L1 detected with PE anti-human IgG1/3; details: one partner purified
mPD-1 on CHO cells = molecular target: T2, mPD-1 on CHO cells (mouse, UniProt Q02242); experiment: as above; details: one partner purified
T2 construct: also called mPD-1-expressing CHO cells; cellular mPD-1; source: CHO cells, stably transfected (pCMV3 vector), on cells

[3] = molecular target: T3, hPD-1 P130A on HEK293T cells (Homo sapiens, UniProt Q15116, P130A); experiment: flow cytometry on cells; shotgun mutagenesis alanine scan (Integral Molecular): hPD-1 wild type or mutants transiently expressed in HEK293 T cells, incubated with antibody, Alexa Fluor 488 secondary antibody; non-blocking control anti-PD-1 as reference; details: one partner purified
T3 construct: programmed cell death 1 (PD-1), human, alanine mutant of the shotgun mutagenesis library; source: HEK293 T cells, transiently transfected, on cells

[4] = molecular target: T4, hPD-1 L128A on HEK293T cells (Homo sapiens, UniProt Q15116, L128A); experiment: as above; details: one partner purified
T4 construct: programmed cell death 1 (PD-1), human, alanine mutant of the shotgun mutagenesis library; source: HEK293 T cells, transiently transfected, on cells

[5] = molecular target: T5, hPD-1 I126A on HEK293T cells (Homo sapiens, UniProt Q15116, I126A); experiment: as above; details: one partner purified
T5 construct: programmed cell death 1 (PD-1), human, alanine mutant of the shotgun mutagenesis library; source: HEK293 T cells, transiently transfected, on cells
T5 sequence (Q15116 25-288 I126A): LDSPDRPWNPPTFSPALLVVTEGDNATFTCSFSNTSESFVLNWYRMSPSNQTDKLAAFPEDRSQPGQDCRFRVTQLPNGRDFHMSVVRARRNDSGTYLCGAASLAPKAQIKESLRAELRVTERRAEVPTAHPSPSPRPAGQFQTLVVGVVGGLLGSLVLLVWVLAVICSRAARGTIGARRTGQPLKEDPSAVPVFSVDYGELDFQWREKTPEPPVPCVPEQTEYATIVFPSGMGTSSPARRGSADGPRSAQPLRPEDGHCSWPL

T1 sequence (Q15116 25-288): as the sequence (Q15116 25-288 I126A) above, with A102I counted along it
T3 sequence (Q15116 25-288 P130A): as the sequence (Q15116 25-288 I126A) above, with A102I, P106A counted along it
T2 sequence (Q02242 25-288): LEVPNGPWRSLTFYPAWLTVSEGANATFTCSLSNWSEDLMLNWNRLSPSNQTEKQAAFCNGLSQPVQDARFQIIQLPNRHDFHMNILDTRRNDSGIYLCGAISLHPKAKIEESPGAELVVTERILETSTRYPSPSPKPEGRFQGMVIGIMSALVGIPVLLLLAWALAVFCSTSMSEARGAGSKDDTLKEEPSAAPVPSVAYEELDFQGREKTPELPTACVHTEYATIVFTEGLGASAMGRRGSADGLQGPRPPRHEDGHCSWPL
T4 sequence (Q15116 25-288 L128A): as the sequence (Q15116 25-288 I126A) above, with A102I, L104A counted along it

B1: GNUV201 (antibody, V domains shown)
VH: QVQLVQSGAEVKKPGASVKVSCKASGYTFTGYWMHWVRQAPGQGLEWIGMIHPNSDTTTYNEKFKNRVTMTRDTSISTAYMELSRLRSDDTAVYYCAGTDQAAWFAFWGQGTTVTVSS
VL: DIVMTQTPLSLSVTPGQPASISCRSSQNIVHSQGDTYLEWYLQKPGQSPQLLIYKVSKRFSGVPDRFSGSGSGTDFTLKISRVEAEDVGVYYCFQGSHVPWTFGGGTKVEIK
notes: humanized VH: CDRs of mouse clone 1G1 grafted into human IgG framework, with select point mutations; human IgG4 heavy chain constant region, hinge-stabilised S228P variant; IgG4 (S228P); the data statement says that datasets are available on request; also called humanized GNUV201; anti-PD-1; copies: 2 + 2
Question: Which “reporter assay: luciferase (NFAT-RE) in Jurkat T cells expressing hPD-1 with human PD-L1 aAPC/CHO-K1 cells; IC50 of blocking hPD-1/hPD-L1” value (hPD-1 on CHO cells [1]) does the source give for B1 here?
Answer: 6.3 nM

Question: What about the IC50 (hPD-1 on CHO cells [2]) of the same binder?
Answer: 9.9 nM

Question: And the IC50 (mPD-1 on CHO cells)?
Answer: 6.7 nM

Question: What about the “percent of WT PD-1 control binding” value [3] of the same binder?
Answer: 19.5%

Question: What about the “percent of WT PD-1 control binding” value [4] of the same binder?
Answer: 38.5%

Question: What about the “percent of WT PD-1 control binding” value [5] of the same binder?
Answer: 46.6%
